Source: the supplement of paper PMC5998384

Columns and labels:
[1] = tested on: HeLa Kyoto; test: melting temperature (median over replicates), in situ; higher = more thermally stable
[2] = tested on: HeLa Kyoto; test: thermal stability score vs G1/S (z-score of summed log2 fold changes over temperatures); higher = more thermally stable than in G1/S
[3] = tested on: HeLa Kyoto; test: solubility change mitosis vs G1/S (difference of NP-40 vs SDS log2 ratios) (log2 ratio difference); higher = more soluble in mitosis
[4] = tested on: HeLa Kyoto; test: solubility in G1/S (NP-40 vs SDS abundance) (log2 ratio); higher = more soluble; conditions: cell cycle stage: G1/S
[5] = cell cycle stage: early G1 (4.5 h after nocodazole release)
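Wherever melting temperature (median over replicates), in situ is given: HeLa Kyoto cells synchronized by double thymidine or nocodazole block, proteins quantified by TMT10plex mass spectrometry, three independent biological replicates.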
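Wherever solubility change mitosis vs G1/S (difference of NP-40 vs SDS log2 ratios) is given: synchronized HeLa Kyoto cells (double thymidine block for G1/S, nocodazole release for mitosis), protein amounts in NP-40 versus SDS lysates quantified by mass spectrometry, three biological replicates.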
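Wherever solubility in G1/S (NP-40 vs SDS abundance) is given: HeLa Kyoto cells arrested at G1/S by double thymidine block, proteins quantified by TMT10plex mass spectrometry in mild NP-40 versus SDS extracts, three biological replicates.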
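Wherever thermal stability score vs G1/S (z-score of summed log2 fold changes over temperatures) is given: synchronized HeLa Kyoto cells, proteins quantified by TMT10plex mass spectrometry, three biological replicates, mitosis taken 0.5 h after nocodazole release, G1/S directly after double thymidine block.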

| Substance | melting temperature ([1]; cell cycle stage: G1/S) [°C] | melting temperature ([1]; cell cycle stage: mitosis) [°C] | thermal stability score [2, 5] | thermal stability score ([2]; cell cycle stage: mitosis) | solubility change mitosis (log2) [3] | solubility in G1/S (log2) [4] |
| --- | --- | --- | --- | --- | --- | --- |
| MAAAAARVVLSSAARRRLWGFSESLLIRGAAGRSLYFGENRLRSTQAATQVVLNVPETRVTCLESGLRVASEDSGLSTCTVGLWIDAGSRYENEKNNGTAHFLEHMAFKGTKKRSQLDLELEIENMGAHLNAYTSREQTVYYAKAFSKDLPRAVEILADIIQNSTLGEAEIERERGVILREMQEVETNLQEVVFDYLHATAYQNTALGRTILGPTENIKSISRKDLVDYITTHYKGPRIVLAAAGGVSHDELLDLAKFHFGDSLCTHKGEIPALPPCKFTGSEIRVRDDKMPLAHLAIAVEAVGWAHPDTICLMVANTLIGNWDRSFGGGMNLSSKLAQLTCHGNLCHSFQSFNTSYTDTGLWGLYMVCESSTVADMLHVVQKEWMRLCTSVTESEVARARNLLKTNMLLQLDGSTPICEDIGRQMLCYNRRIPIPELEARIDAVNAETIREVCTKYIYNRSPAIAAVGPIKQLPDFKQIRSNMCWLRD [PMPCB] | 51.7 | 52.1 | -0.694 | -1.33 | -0.0473 | 0.179 |
| RBBP6 | 49 | 49.9 | -2.06 | 3.66 | 0.511 | -0.908 |
| MSGIKKQKTENQQKSTNVVYQAHHVSRNKRGQVVGTRGGFRGCTVWLTGLSGAGKTTISFALEEYLVSHAIPCYSLDGDNVRHGLNRNLGFSPGDREENIRRIAEVAKLFADAGLVCITSFISPFAKDRENARKIHESAGLPFFEIFVDAPLNICESRDVKGLYKRARAGEIKGFTGIDSDYEKPETPERVLKTNLSTVSDCVHQVVELLQEQNIVPYTIIKDIHELFVPENKLDHVRAEAETLPSLSITKLDLQWVQVLSEGWATPLKGFMREKEYLQVMHFDTLLDDGVINMSIPIVLPVSAEDKTRLEGCSKFVLAHGGRRVAILRDAEFYEHRKEERCSRVWGTTCTKHPHIKMVMESGDWLVGGDLQVLEKIRWNDGLDQYRLTPLELKQKCKEMNADAVFAFQLRNPVHNGHALLMQDTRRRLLERGYKHPVLLLHPLGGWTKDDDVPLDWRMKQHAAVLEEGVLDPKSTIVAIFPSPMLYAGPTEVQWHCRSRMIAGANFYIVGRDPAGMPHPETKKDLYEPTHGGKVLSMAPGLTSVEIIPFRVAAYNKAKKAMDFYDPARHNEFDFISGTRMRKLAREGENPPDGFMAPKAWKVLTDYYRSLEKN [PAPSS2] | 52.2 | 53.1 | 2.13 | 3.19 | -0.108 | -0.0222 |
| MRLTRCQAALAAAITLNLLVLFYVSWLQHQPRNSRARGPRRASAAGPRVTVLVREFEAFDNAVPELVDSFLQQDPAQPVVVAADTLPYPPLALPRIPNVRLALLQPALDRPAAASRPETYVATEFVALVPDGARAEAPGLLERMVEALRAGSARLVAAPVATANPARCLALNVSLREWTARYGAAPAAPRCDALDGDAVVLLRARDLFNLSAPLARPVGTSLFLQTALRGWAVQLLDLTFAAARQPPLATAHARWKAEREGRARRAALLRALGIRLVSWEGGRLEWFGCNKETTRCFGTVVGDTPAYLYEERWTPPCCLRALRETARYVVGVLEAAGVRYWLEGGSLLGAARHGDIIPWDYDVDLGIYLEDVGNCEQLRGAEAGSVVDERGFVWEKAVEGDFFRVQYSESNHLHVDLWPFYPRNGVMTKDTWLDHRQDVEFPEHFLQPLVPLPFAGFVAQAPNNYRRFLELKFGPGVIENPQYPNPALLSLTGSG [FKRP] | 54.5 | 55.1 | -1.33 | 0.366 | 0.00852 | 0.127 |
| MRKFAYCKVVLATSLIWVLLDMFLLLYFSECNKCDEKKERGLPAGDVLEPVQKPHEGPGEMGKPVVIPKEDQEKMKEMFKINQFNLMASEMIALNRSLPDVRLEGCKTKVYPDNLPTTSVVIVFHNEAWSTLLRTVHSVINRSPRHMIEEIVLVDDASERDFLKRPLESYVKKLKVPVHVIRMEQRSGLIRARLKGAAVSKGQVITFLDAHCECTVGWLEPLLARIKHDRRTVVCPIIDVISDDTFEYMAGSDMTYGGFNWKLNFRWYPVPQREMDRRKGDRTLPVRTPTMAGGLFSIDRDYFQEIGTYDAGMDIWGGENLEISFRIWQCGGTLEIVTCSHVGHVFRKATPYTFPGGTGQIINKNNRRLAEVWMDEFKNFFYIISPGVTKVDYGDISSRVGLRHKLQCKPFSWYLENIYPDSQIPRHYFSLGEIRNVETNQCLDNMARKENEKVGIFNCHGMGGNQVFSYTANKEIRTDDLCLDVSKLNGPVTMLKCHHLKGNQLWEYDPVKLTLQHVNSNQCLDKATEEDSQVPSIRDCNGSRSQQWLLRNVTLPEIF [GALNT1] | 53.1 | 52 | 3.31 | 5 | -0.0904 | -0.204 |
| MAELTALESLIEMGFPRGRAEKALALTGNQGIEAAMDWLMEHEDDPDVDEPLETPLGHILGREPTSSEQGGLEGSGSAAGEGKPALSEEERQEQTKRMLELVAQKQREREEREEREALERERQRRRQGQELSAARQRLQEDEMRRAAEERRREKAEELAARQRVREKIERDKAERAKKYGGSVGSQPPPVAPEPGPVPSSPSQEPPTKREYDQCRIQVRLPDGTSLTQTFRAREQLAAVRLYVELHRGEELGGGQDPVQLLSGFPRRAFSEADMERPLQELGLVPSAVLIVAKKCPS [UBXN1] | 52.1 | 51.3 | -1.73 | -2.31 | 0.313 | 0.608 |
| MLDFFTIFSKGGLVLWCFQGVSDSCTGPVNALIRSVLLQERGGNNSFTHEALTLKYKLDNQFELVFVVGFQKILTLTYVDKLIDDVHRLFRDKYRTEIQQQSALSLLNGTFDFQNDFLRLLREAEESSKIRAPTTMKKFEDSEKAKKPVRSMIETRGEKPKEKAKNSKKKGAKKEGSDGPLATSKPVPAEKSGLPVGPENGVELSKEELIRRKREEFIQKHGRGMEKSNKSTKSDAPKEKGKKAPRVWELGGCANKEVLDYSTPTTNGTPEAALSEDINLIRGTGSGGQLQDLDCSSSDDEGAAQNSTKPSATKGTLGGMFGMLKGLVGSKSLSREDMESVLDKMRDHLIAKNVAADIAVQLCESVANKLEGKVMGTFSTVTSTVKQALQESLVQILQPQRRVDMLRDIMDAQRRQRPYVVTFCGVNGVGKSTNLAKISFWLLENGFSVLIAACDTFRAGAVEQLRTHTRRLSALHPPEKHGGRTMVQLFEKGYGKDAAGIAMEAIAFARNQGFDVVLVDTAGRMQDNAPLMTALAKLITVNTPDLVLFVGEALVGNEAVDQLVKFNRALADHSMAQTPRLIDGIVLTKFDTIDDKVGAAISMTYITSKPIVFVGTGQTYCDLRSLNAKAVVAALMKA [SRPR] | 50.5 | 50.9 | 1.98 | 2.56 | -0.0915 | 0.119 |
| MNIMDFNVKKLAADAGTFLSRAVQFTEEKLGQAEKTELDAHLENLLSKAECTKIWTEKIMKQTEVLLQPNPNARIEEFVYEKLDRKAPSRINNPELLGQYMIDAGTEFGPGTAYGNALIKCGETQKRIGTADRELIQTSALNFLTPLRNFIEGDYKTIAKERKLLQNKRLDLDAAKTRLKKAKAAETRNSSEQELRITQSEFDRQAEITRLLLEGISSTHAHHLRCLNDFVEAQMTYYAQCYQYMLDLQKQLGSFPSNYLSNNNQTSVTPVPSVLPNAIGSSAMASTSGLVITSPSNLSDLKECSGSRKARVLYDYDAANSTELSLLADEVITVFSVVGMDSDWLMGERGNQKGKVPITYLELLN [SH3GLB1] | 48.1 | 48.7 | 1.13 | 2.44 | 0.00172 | 0.531 |
| MYTFVVRDENSSVYAEVSRLLLATGHWKRLRRDNPRFNLMLGERNRLPFGRLGHEPGLVQLVNYYRGADKLCRKASLVKLIKTSPELAESCTWFPESYVIYPTNLKTPVAPAQNGIQPPISNSRTDEREFFLASYNRKKEDGEGNVWIAKSSAGAKGEGILISSEASELLDFIDNQGQVHVIQKYLEHPLLLEPGHRKFDIRSWVLVDHQYNIYLYREGVLRTASEPYHVDNFQDKTCHLTNHCIQKEYSKNYGKYEEGNEMFFKEFNQYLTSALNITLESSILLQIKHIIRNCLLSVEPAISTKHLPYQSFQLFGFDFMVDEELKVWLIEVNGAPACAQKLYAELCQGIVDIAISSVFPPPDVEQPQTQPAAFIKL [TTL] | 53.9 | 53.4 | 0.614 | -0.119 | -0.197 | 0.146 |
| MPEIVDTCSLASPASVCRTKHLHLRCSVDFTRRTLTGTAALTVQSQEDNLRSLVLDTKDLTIEKVVINGQEVKYALGERQSYKGSPMEISLPIALSKNQEIVIEISFETSPKSSALQWLTPEQTSGKEHPYLFSQCQAIHCRAILPCQDTPSVKLTYTAEVSVPKELVALMSAIRDGETPDPEDPSRKIYKFIQKVPIPCYLIALVVGALESRQIGPRTLVWSEKEQVEKSAYEFSETESMLKIAEDLGGPYVWGQYDLLVLPPSFPYGGMENPCLTFVTPTLLAGDKSLSNVIAHEISHSWTGNLVTNKTWDHFWLNEGHTVYLERHICGRLFGEKFRHFNALGGWGELQNSVKTFGETHPFTKLVVDLTDIDPDVAYSSVPYEKGFALLFYLEQLLGGPEIFLGFLKAYVEKFSYKSITTDDWKDFLYSYFKDKVDVLNQVDWNAWLYSPGLPPIKPNYDMTLTNACIALSQRWITAKEDDLNSFNATDLKDLSSHQLNEFLAQTLQRAPLPLGHIKRMQEVYNFNAINNSEIRFRWLRLCIQSKWEDAIPLALKMATEQGRMKFTRPLFKDLAAFDKSHDQAVRTYQEHKASMHPVTAMLVGKDLKVD [LTA4H] | 53 | 53 | 1.7 | 0.372 | -0.173 | 0.0608 |
| ZFC3H1 | 49.3 | 49.9 | 0.428 | 0.858 | 0.0411 | -0.247 |
| MPGKLKVKIVAGRHLPVMDRASDLTDAFVEVKFGNTTFKTDVYLKSLNPQWNSEWFKFEVDDEDLQDEPLQITVLDHDTYSANDAIGKVYIDIDPLLYSEAATVISGWFPIYDTIHGIRGEINVVVKVDLFNDLNRFRQSSCGVKFFCTTSIPKCYRAVIIHGFVEELVVNEDPEYQWIDRIRTPRASNEARQRLISLMSGELQRKIGLKVLEMRGNAVVGYLQCFDLEGESGLVVRAIGTACTLDKLSSPAAFLPACNSPSKEMKEIPFNEDPNPNTHSSGPSTPLKNQTYSFSPSKSYSRQSSSSDTDLSLTPKTGMGSGSAGKEGGPFKALLRQQTQSALEQREFPFFTLTAFPPGFLVHVGGVVSARSVKLLDRIHNPDEPETRDAWWAEIRQEIKSHAKALGCHAVVGYSESTSICEEVCILSASGTAAVLNPRFLQDGTVEGCLEQRLEENLPTRCGFCHIPYDELNMPFPAHLTYCYNCRKQKVPDVLFTTIDLPTDATVIGKGCLIQARLCRLKKKAQAEANATAISNLLPFMEYEVHTQLMNKLKLKGMNALFGLRIQITVGENMLMGLASATGVYLAALPTPGGIQIAGKTPNDGSYEQHISHMQKKINDTIAKNKELYEINPPEISEEIIGSPIPEPRQRSRLLRSQSESSDEVTELDLSHGKKDAFVLEIDDTDAMEDVHSLLTDVPPPSGFYSCNTEIMPGINNWTSEIQMFTSVRVIRLSSLNLTNQALNKNFNDLCENLLKSLYFKLRSMIPCCLCHVNFTVSLPEDELIQVTVTAVAITFDKNQALQTTKTPVEKSLQRASTDNEELLQFPLELCSDSLPSHPFPPAKAMTVEKASPVGDGNFRNRSAPPCANSTVGVVKMTPLSFIPGAKITKYLGIINMFFIRETTSLREEGGVSGFLHAFIAEVFAMVRAHVAALGGNAVVSYIMKQCVFMENPNKNQAQCLINVSGDAVVFVRESDLEVVSSQQPTTNCQSSCTEGEVTT [C2CD5] | 52.2 | 52.3 | 0.25 | -0.02 | -0.067 | 0.000995 |
| MAAGGRMEDGSLDITQSIEDDPLLDAQLLPHHSLQAHFRPRFHPLPTVIIVNLLWFIHLVFVVLAFLTGVLCSYPNPNEDKCPGNYTNPLKVQTVIILGKVILWILHLLLECYIQYHHSKIRNRGYNLIYRSTRHLKRLALMIQSSGNTVLLLILCMQHSFPEPGRLYLDLILAILALELICSLICLLIYTVKIRRFNKAKPEPDILEEEKIYAYPSNITSETGFRTISSLEEIVEKQGDTIEYLKRHNALLSKRLLALTSSDLGCQPSRT [TMEM192] | 55.6 | 55.9 | 0.271 | -1.67 | -0.241 | 0.0852 |
